Patent publication US20240317844A1

Molecular target: survivin (UniProt O15392)
Test: method not stated

B1: mAb 2C2E7 (antibody, V domains shown)
VH: QIQLVQSGPELKKPGETVKISCKASGYTFTTYGMSWVKQAPGRGLKWMGWINPYSGVPTYAVDFKGRFAFSLETSASTAYLQINNLKNEDTATYFCARGGRRGDFGYWGQGTTLTVSS
VL: QIGLTQSPAIMSASPGEKVTMTCSASSSISYMHWYQQKPGTSPKTWIYDTSKLASGVPARFSGSGSGTSYSLTISSMEAEDAATYYCHQRSSHHTFGGGTKLEIK
Q: How did the Kd turn out when B1 was run?
A: Its Kd is 0.56 nM.
